Experimental findings from patent US20230078173A1 (ELIXIRON IMMUNOTHERAPEUTICS HONG KONG, published 2023) are described below.

One assay has as its target T1, IL10Rα-Fc fusion protein (human, UniProt Q13651 22-235).
T1 construct: Bought from R&D Systems; also called human IL10Rα
T1 sequence (looked up): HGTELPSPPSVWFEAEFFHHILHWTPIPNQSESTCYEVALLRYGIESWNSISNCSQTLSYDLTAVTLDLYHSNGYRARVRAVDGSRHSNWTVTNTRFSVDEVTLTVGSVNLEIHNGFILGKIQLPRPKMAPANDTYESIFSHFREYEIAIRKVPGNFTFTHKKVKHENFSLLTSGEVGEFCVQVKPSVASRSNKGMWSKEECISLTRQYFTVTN
Put plainly: ELISA, IL10Rα-Fc immobilised (1 µg/mL). In general terms: In an ELISA, binding on a coated surface is turned into a signal by an enzyme label.

In assay [1] the target is T2, recombinant human PD-L1-mFc fusion protein (human, UniProt Q9NZQ7 19-238).
T2 construct: also called hPD-L1; huPD-L1
T2 sequence (Q9NZQ7 19-238): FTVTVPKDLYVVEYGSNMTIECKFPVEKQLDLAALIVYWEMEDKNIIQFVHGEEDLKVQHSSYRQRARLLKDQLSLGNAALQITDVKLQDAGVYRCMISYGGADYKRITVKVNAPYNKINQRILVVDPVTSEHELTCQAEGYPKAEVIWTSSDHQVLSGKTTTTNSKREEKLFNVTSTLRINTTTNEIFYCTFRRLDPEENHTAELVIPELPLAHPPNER
Put plainly: competition ELISA, PD-L1 immobilised, competitor biotin-PD-1-Fc (30 µg/mL).
Description: To test the competition activity, serial dilutions of anti-PD-L1 or anti-PD-L1/IL10 fusion proteins were added.
A recombinant human PD-L1-mFc fusion protein (1 μg/mL), recombinant cynomolgus PD-L1 (1 μg/mL; Sino Biological), or an IL10Rα-Fc fusion protein (1 μg/mL, R&D Systems) were immobilized on 96 well microtiter plate at a concentration of 1 μg/ml in Coating Solution (SeraCare) overnight at 4° C. The wells were washed with wash solution (0.05% Tween20 in imidazole-buffered saline) and blocked with 1% BSA. Serial dilutions of anti-PD-L1 or anti-PD-L1/IL10 fusion proteins were added to wells. After incubation at 37° C. for 1 hr, the wells were washed with wash solution. Peroxidase-conjugated Goat anti-human kappa Light chain antibody (Sigma) was applied to each well at 37° C. for 1 h incubation. […] After washing, the wells were developed with TMB substrate for 5-10 min at RT and then stopped with 1 N HCl. Thereafter, absorbance was measured at 450 nm and 650 nm. EC50 and IC50 values were calculated using GraphPad Prism7.

The target of assay [2] is T2, recombinant human PD-L1-mFc fusion …. Put plainly: ELISA, human PD-L1-mFc immobilised (1 µg/mL), anti-human kappa-HRP detection.
Description: (§1) The wells were washed with wash solution (0.05% Tween20 in imidazole-buffered saline) and blocked with 1% BSA. […] After incubation at 37° C. for 1 hr, the wells were washed with wash solution. Peroxidase-conjugated Goat anti-human kappa Light chain antibody (Sigma) was applied to each well at 37° C. for 1 h incubation. […] After washing, the wells were developed with TMB substrate for 5-10 min at RT and then stopped with 1 N HCl. Thereafter, absorbance was measured at 450 nm and 650 nm. EC50 and IC50 values were calculated using GraphPad Prism7.
The target of assay [3] is PD-L1 on PD-L1-presenting U2OS bioassay cells (UniProt Q9NZQ7 19-290). Put plainly: cell-based or functional assay.
PD-L1 on PD-L1-presenting U2OS bioassay cells, sequence (Q9NZQ7 19-290): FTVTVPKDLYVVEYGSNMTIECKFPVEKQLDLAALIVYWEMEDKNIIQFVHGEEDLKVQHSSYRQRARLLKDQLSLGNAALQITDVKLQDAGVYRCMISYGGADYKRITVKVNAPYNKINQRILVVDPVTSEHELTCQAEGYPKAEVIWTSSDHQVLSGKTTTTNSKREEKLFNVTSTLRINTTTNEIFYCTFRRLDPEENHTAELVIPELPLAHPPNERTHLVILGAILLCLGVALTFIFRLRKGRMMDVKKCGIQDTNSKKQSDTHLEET
Assay [4] concerns the target T3, recombinant human PD-L1-His (human, UniProt Q9NZQ7 19-238).
T3 construct: Analyte of the BLI assay; also called hPD-L1
Put plainly: BLI (Octet RED96), antibody captured on AHC biosensor, PD-L1-His in solution, 1:1 model.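 Further: rates obtained by 1:1 Langmuir fitting of the binding response, using a 2.5 min association phase then a 5 min dissociation phase.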 A general note: BLI is a label-free optical method that tracks binding on a fibre tip over time.
Description: Rate constants were calculated by curve fitting analyses (1:1 Langmuir model) of binding response with a 2.5-minute association and 5-minute dissociation interaction time.

T3 sequence (Q9NZQ7 19-238): as the sequence (Q9NZQ7 19-238) above
Description for IL10Rα-Fc fusion protein: as §1

B1: Avelumab/IL10 (antibody, human IgG1, lambda)
heavy: not shown
light: QSALTQPASVSGSPGQSITISCTGTSSDVGGYNYVSWYQQHPGKAPKLMIYDVSNRPSGVSNRFSGSKSGNTASLTISGLQAEDEADYYCSSYTSSSTRVFGTGTKVTVLGQPKANPTVTLFPPSSEELQANKATLVCLISDFYPGAVTVAWKADGSPVKAGVETTKPSKQSNNKYAASSYLSLTPEQWKSHRSYSCQVTHEGSTVEKTVAPTECS
As a reminder, the EC50 is the concentration needed to bring the measured effect to its halfway point. In the assay with IL10Rα-Fc fusion protein, B1 registered a concentration giving a half-maximal response (EC50) of 25.9 nM.

B2: Atezolizumab/IL10 (antibody)
heavy: not shown
light: DIQMTQSPSSLSASVGDRVTITCRASQDVSTAVAWQQKPGKAPKLLIYSASFLYSGVPSRFSGSGSGTDFTLTISSLQPEDFATYYCQQYLYHPATFGQGTKVEIKRRTVAAPSVFIFPPSDEQLKSGTASVVCLLNNFYPREAKVQWKVDNALQSGNSQESVTEQDSKDSTYSLSSTLTLSKADYEKHKVYACEVTHQGLSSPVTKSFNRGEC
What is called IC50 is the concentration needed to halve the response being measured. For B2, the concentration for half-maximal inhibition (IC50) in assay [1] turned out to be 0.124 nM. Further, the EC50 with IL10Rα-Fc fusion protein came out at 87.2 nM; in assay [2], 0.0865 nM.

B3: PHS219/IL10 (antibody, human IgG1, kappa, N297A)
heavy: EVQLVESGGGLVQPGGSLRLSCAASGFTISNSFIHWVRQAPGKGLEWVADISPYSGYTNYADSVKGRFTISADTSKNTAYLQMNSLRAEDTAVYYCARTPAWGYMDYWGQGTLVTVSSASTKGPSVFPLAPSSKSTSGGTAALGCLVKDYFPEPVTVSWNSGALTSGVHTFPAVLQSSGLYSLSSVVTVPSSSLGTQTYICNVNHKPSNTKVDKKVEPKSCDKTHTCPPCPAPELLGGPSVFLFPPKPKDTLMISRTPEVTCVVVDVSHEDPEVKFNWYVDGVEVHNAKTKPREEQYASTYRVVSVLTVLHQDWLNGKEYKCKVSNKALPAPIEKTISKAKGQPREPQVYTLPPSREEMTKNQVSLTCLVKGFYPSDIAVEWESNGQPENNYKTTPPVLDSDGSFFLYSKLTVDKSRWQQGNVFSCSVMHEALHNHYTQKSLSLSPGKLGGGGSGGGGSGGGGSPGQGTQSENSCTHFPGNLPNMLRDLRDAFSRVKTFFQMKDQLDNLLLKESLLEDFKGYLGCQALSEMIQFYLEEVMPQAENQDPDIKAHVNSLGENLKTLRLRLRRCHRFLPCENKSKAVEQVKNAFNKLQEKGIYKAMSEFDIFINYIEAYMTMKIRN
light: DIQMTQSPSSLSASVGDRVTITCRASQDVSSSVAWYQQKPGKAQKLLISWATSLYSGVPSRFSGSGSGTDFTLTISSLQPEDFATYYCQQYNNFPYTFGQGTKVEIKRTVAAPSVFIFPPSDEQLKSGTASVVCLLNNFYPREAKVQWKVDNALQSGNSQESVTEQDSKDSTYSLSSTLTLSKADYEKHKVYACEVTHQGLSSPVTKSFNRGEC
In the case of B3, in assay [1], the IC50 came to 1.2 nM. Also, the EC50 with IL10Rα-Fc fusion protein was 66.3 nM; in assay [2], 0.164 nM.

B4: PHS219 (antibody, human IgG1, kappa, N297A)
heavy: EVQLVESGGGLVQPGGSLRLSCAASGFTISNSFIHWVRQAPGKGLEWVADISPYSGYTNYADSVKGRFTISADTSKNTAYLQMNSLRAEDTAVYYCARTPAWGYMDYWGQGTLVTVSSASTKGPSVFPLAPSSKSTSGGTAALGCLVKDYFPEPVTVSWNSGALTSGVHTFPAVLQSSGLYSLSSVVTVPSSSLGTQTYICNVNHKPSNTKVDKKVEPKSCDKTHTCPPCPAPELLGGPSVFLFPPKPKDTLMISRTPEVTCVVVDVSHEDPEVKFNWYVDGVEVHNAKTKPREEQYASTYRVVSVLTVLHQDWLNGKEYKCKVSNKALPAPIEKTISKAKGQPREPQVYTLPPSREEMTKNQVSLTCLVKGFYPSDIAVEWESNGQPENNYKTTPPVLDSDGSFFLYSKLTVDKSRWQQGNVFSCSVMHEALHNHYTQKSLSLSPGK
light: DIQMTQSPSSLSASVGDRVTITCRASQDVSSSVAWYQQKPGKAQKLLISWATSLYSGVPSRFSGSGSGTDFTLTISSLQPEDFATYYCQQYNNFPYTFGQGTKVEIKRTVAAPSVFIFPPSDEQLKSGTASVVCLLNNFYPREAKVQWKVDNALQSGNSQESVTEQDSKDSTYSLSSTLTLSKADYEKHKVYACEVTHQGLSSPVTKSFNRGEC
In the case of B4, the IC50 in assay [1] worked out at 38900 nM. Further, the concentration for a half-maximal effect (EC50) in assay [2] is 0.204 nM.

B5: Durvalumab/IL10 (antibody, human IgG1, kappa, N297A)
heavy: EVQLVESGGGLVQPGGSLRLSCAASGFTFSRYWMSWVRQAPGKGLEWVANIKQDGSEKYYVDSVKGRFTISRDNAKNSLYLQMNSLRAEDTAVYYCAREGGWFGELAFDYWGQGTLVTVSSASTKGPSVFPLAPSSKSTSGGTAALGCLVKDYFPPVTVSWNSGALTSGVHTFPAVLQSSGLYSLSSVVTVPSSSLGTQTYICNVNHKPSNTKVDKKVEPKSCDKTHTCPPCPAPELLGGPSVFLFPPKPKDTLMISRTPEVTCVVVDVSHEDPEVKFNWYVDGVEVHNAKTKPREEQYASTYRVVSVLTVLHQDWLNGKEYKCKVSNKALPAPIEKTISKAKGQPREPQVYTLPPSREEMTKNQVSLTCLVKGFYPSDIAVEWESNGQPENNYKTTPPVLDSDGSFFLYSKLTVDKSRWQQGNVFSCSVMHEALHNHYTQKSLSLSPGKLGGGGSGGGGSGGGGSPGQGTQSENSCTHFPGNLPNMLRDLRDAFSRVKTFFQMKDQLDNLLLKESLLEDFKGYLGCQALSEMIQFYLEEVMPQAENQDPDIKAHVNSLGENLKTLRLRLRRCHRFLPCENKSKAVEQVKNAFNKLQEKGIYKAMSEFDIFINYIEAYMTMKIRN
light: EIVLTQSPGTLSLSPGERATLSCRASQRVSSSYLAWYQQKPGQAPRLLIYDASSRATGIPDRFSGSGSGTDFTLTISRLEPEDFAWYYCQQYGSLPWTFGQGTKVEIKRTVAAPSVFIFPPSDEQLKSGTASVVCLLNNFYPREAKVQWKVDNALQSGNSQESVTEQDSKDSTYSLSSTLTLSKADYEKHKVYACEVTHQGLSSPVTKSFNRGEC
With B5, in assay [1], the half-inhibitory concentration (IC50) came to 0.188 nM. In addition, the EC50 was 37.5 nM in the assay with IL10Rα-Fc fusion protein and 0.121 nM in assay [2].

B6: PHS102.YT7A (antibody, human IgG1, kappa, N297A)
heavy: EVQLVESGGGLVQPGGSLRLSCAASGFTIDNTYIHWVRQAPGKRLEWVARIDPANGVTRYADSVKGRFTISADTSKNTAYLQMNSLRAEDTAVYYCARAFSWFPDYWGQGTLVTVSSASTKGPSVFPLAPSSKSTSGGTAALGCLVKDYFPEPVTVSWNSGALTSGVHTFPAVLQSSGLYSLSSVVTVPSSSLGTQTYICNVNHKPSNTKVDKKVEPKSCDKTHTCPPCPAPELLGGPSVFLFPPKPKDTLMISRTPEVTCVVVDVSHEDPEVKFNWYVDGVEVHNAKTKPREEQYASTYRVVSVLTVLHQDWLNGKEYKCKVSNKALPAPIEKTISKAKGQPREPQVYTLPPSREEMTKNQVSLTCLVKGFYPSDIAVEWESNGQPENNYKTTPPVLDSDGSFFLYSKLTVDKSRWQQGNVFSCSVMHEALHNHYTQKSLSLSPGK
light: DIQMTQSPSSLSASVGDRVTITCRAGQDVYKAVAWYQQKPGKAPKLLIYWSTNLYSGVPSRFSGSGSGTDFTLTISSLQPEDFATYYCQQYGIAPPTFGQGTKVEIKRTVAAPSVFIFPPSDEQLKSGTASVVCLLNNFYPREAKVQWKVDNALQSGNSQESVTEQDSKDSTYSLSSTLTLSKADYEKHKVYACEVTHQGLSSPVTKSFNRGEC
notes: full-length human IgG1-N297A / kappa
By Kd is commonly meant the equilibrium constant for the complex coming apart. One may read the koff as the rate constant with which the complex falls apart. As a reminder, the kon is the rate constant with which the complex forms. Take B6: in assay [3], the “IC50, blocking PD-1/PD-L1 signaling (PathHunter PD-1 Signaling Bioassay, U2OS PD-L1 cells + Jurkat PD-1 signaling cells)” value (“IC50, blocking PD-1/PD-L1 signaling” for short) was found to be 6.07 nM. In addition, in assay [4], the Kd came to 1.99 nM, the dissociation rate constant (koff) was found to be 0.000603 s⁻¹ and the kon is 303000 M⁻¹ s⁻¹.

B7: PHS102.YT7H/IL10 (antibody, human IgG1, kappa, N297A)
heavy: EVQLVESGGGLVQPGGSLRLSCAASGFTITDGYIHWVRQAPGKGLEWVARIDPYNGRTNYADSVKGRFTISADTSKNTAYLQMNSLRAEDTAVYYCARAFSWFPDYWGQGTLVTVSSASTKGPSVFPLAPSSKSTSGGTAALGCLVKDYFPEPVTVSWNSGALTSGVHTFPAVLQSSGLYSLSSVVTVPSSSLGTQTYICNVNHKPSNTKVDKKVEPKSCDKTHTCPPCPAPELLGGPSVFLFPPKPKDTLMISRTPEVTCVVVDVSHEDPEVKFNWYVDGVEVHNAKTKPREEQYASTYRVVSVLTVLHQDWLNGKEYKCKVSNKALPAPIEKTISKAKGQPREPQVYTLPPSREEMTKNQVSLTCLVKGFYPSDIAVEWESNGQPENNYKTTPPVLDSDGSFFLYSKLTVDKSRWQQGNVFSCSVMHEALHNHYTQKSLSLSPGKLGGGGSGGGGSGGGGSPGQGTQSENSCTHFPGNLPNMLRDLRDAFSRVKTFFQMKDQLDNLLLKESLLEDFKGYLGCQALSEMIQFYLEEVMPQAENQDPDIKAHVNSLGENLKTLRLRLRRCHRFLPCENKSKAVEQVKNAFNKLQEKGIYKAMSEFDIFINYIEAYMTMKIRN
light: DIQMTQSPSSLSASVGDRVTITCRAGQDVYKAVAWYQQKPGKAPKLLIYWSTNLYSGVPSRFSGSGSGTDFTLTISSLQPEDFATYYCQQHGNAPITFGQGTKVEIKRTVAAPSVFIFPPSDEQLKSGTASVVCLLNNFYPREAKVQWKVDNALQSGNSQESVTEQDSKDSTYSLSSTLTLSKADYEKHKVYACEVTHQGLSSPVTKSFNRGEC
Regarding B7, the “IC50, blocking PD-1/PD-L1 signaling” value in assay [3] came to 2.47 nM.

B8: PHS102/IL10 (antibody, human IgG1, kappa, N297A)
heavy: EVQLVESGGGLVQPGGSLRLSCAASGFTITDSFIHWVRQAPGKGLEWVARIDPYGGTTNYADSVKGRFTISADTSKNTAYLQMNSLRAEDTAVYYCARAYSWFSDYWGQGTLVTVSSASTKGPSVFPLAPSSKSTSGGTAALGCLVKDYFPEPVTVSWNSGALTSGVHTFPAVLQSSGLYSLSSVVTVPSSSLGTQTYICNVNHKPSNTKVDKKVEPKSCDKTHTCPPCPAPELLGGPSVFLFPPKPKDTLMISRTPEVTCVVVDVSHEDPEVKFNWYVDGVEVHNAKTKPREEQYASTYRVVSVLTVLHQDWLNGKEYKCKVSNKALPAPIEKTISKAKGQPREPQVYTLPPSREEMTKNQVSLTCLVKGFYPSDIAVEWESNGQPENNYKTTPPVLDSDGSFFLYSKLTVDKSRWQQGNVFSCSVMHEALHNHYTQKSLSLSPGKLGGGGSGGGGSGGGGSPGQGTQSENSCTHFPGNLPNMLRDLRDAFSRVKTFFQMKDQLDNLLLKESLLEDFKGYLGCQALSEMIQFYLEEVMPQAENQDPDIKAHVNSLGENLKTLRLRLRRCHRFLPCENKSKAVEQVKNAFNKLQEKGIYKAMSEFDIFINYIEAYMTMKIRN
light: DIQMTQSPSSLSASVGDRVTITCRAGQDVYKAVAWYQQKPGKAPKLLIYWSTNLYSGVPSRFSGSGSGTDFTLTISSLQPEDFATYYCQQGSTWPLTFGQGTKVEIKRTVAAPSVFIFPPSDEQLKSGTASVVCLLNNFYPREAKVQWKVDNALQSGNSQESVTEQDSKDSTYSLSSTLTLSKADYEKHKVYACEVTHQGLSSPVTKSFNRGEC
On to B8, for which the IC50 in assay [1] was 0.061 nM. Further, the EC50 came to 94.3 nM with IL10Rα-Fc fusion protein and 0.0798 nM in assay [2]. In addition, the “IC50, blocking PD-1/PD-L1 signaling” value in assay [3] was 4.22 nM.

B9: PHS102.YT7A/IL10 (antibody, human IgG1, kappa, N297A)
heavy: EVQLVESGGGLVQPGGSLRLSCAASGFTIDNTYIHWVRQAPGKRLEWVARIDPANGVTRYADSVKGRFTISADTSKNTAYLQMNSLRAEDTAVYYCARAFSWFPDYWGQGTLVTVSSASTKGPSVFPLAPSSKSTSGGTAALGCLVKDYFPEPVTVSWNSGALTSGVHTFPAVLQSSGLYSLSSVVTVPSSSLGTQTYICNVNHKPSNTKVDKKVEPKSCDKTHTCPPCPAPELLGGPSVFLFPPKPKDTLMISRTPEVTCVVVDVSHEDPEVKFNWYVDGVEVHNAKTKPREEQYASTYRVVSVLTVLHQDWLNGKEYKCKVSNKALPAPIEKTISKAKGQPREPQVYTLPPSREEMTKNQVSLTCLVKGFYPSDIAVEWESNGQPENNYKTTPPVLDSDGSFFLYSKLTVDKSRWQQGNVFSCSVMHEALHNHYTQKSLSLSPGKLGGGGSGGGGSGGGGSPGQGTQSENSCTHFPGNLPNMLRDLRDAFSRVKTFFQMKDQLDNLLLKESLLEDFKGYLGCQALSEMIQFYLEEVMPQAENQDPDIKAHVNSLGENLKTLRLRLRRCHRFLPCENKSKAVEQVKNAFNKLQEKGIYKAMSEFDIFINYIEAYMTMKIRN
light: DIQMTQSPSSLSASVGDRVTITCRAGQDVYKAVAWYQQKPGKAPKLLIYWSTNLYSGVPSRFSGSGSGTDFTLTISSLQPEDFATYYCQQYGIAPPTFGQGTKVEIKRTVAAPSVFIFPPSDEQLKSGTASVVCLLNNFYPREAKVQWKVDNALQSGNSQESVTEQDSKDSTYSLSSTLTLSKADYEKHKVYACEVTHQGLSSPVTKSFNRGEC
As for B9, in assay [3], the “IC50, blocking PD-1/PD-L1 signaling” value worked out at 4.87 nM.

B10: PHS102.YP7G (antibody, human IgG1, kappa, N297A, V domains shown)
VH: EVQLVESGGGLVQPGGSLRLSCAASGFTIDDTYIHWVRQAPGKGLEWVARIDPANGMTRYADSVKGRFMISADTSKNTAYLQMNSLRAEDTAVYYCARAFSWFPDYWGQGTLVTVSS
VL: DIQMTQSPSSLSASVGDRVTITCRAGQDVYKAVAWYQQKPGKAPKLLIYWSTNLYSGVPSRFSGSGSGTDFTLTISSLQPEDFATYYCQQGSTWPLTFGQGTKVEIKR
notes: as for B6
Take B10: in assay [4], the Kd came out at 5.51 nM, the koff was 0.00136 s⁻¹ and the kon was determined as 247000 M⁻¹ s⁻¹.

B11: PHS102.YP11F (antibody, human IgG1, kappa, N297A, V domains shown)
VH: EVQLVESGGGLVQPGGSLRLSCAASGFTIDNTYIHWVRQAPGKGLEWVARIDPVSGRTRYADSVKGRFTISADTSKNTADLQMNSLRAEDTAVYYCARAFSWFPDYWGQGTLVTVSS
VL: DIQMTQSPSSLSASVGDRVTITCRAGQDVYKAVAWYQQKPGKAPKLLIYWSTNLYSGVPSRFSGSGSGTDFTLTISSLQPEDFATYYCQQFGATPITFGQGTKVEIKR
notes: as for B6
For the molecule B11, in assay [4], the dissociation constant (Kd) came to 1.84 nM, the koff stood at 0.000615 s⁻¹ and the association rate constant (kon) was 334000 M⁻¹ s⁻¹.

B12: PHS102.YT6D (antibody, human IgG1, kappa, N297A, V domains shown)
VH: EVQLVESGGGLVQPGGSLRLSCAASGFTISDGYIHWVRQAPGKGLEWVARIDPLTGRTMYADSVKGRFTISADTSKNTAYLQMNSLRAEDTAVYYCARAFSWWPDYWGQGTLVTVSS
VL: DIQMTQSPSSLSASVGDRVTITCRAGQDVYKAVAWYQQKPGKAPKLLIYWSTNLYSGVPSRFSGSGSGTDFTLTISSLQPEDFATYYCQQIMSPPPTFGQGTKVEIKR
Consider B12, for which, in assay [4], the Kd was determined as 2.16 nM, the koff was found to be 0.000713 s⁻¹ and the kon came out at 330000 M⁻¹ s⁻¹.

B13: PHS102.HSYPP411C (antibody, human IgG1, kappa, N297A, V domains shown)
VH: EVQLVESGGGLVQPGGSLRLSCAASGFTIDNTYIHWVRQAPGKGLEWVARIDPANGKTTYADSVKGRFTISADTSKNTANLQMNSLRAEDTAVYYCARSFSWWADYWGQGTLVTVSS
VL: DIQMTQSPSSLSASVGDRVTITCRAGQDVYKAVAWYQQKPGKAPKLLIYWSTNLYSGVPSRFSGSGSGTDFTLTISSLQPEDFATYYCQQFNLQPTTFGQGTKVEIKR
notes: as for B6
Consider B13, for which, in assay [3], the “IC50, blocking PD-1/PD-L1 signaling” value came out at 3.74 nM. In assay [4], the Kd was determined as 2.03 nM, the koff was 0.000653 s⁻¹ and the kon came to 321000 M⁻¹ s⁻¹.

B14: PHS102.HSYPP31F (antibody, human IgG1, kappa, N297A, V domains shown)
VH: EVQLVESGGGLVQPGGSLRLSCAASGFTIEDSYIHWVRQAPGKGLEWVARIDPITGLTHYADSVKGRFTISADTSKNTAYLQMNSLRAEDTAVYYCARAFSWFPDYWGQGTLVTVSS
VL: DIQMTQSPSSLSASVGDRVTITCRAGQDVYKAVAWYQQKPGKAPKLLIYWSTNLYSGVPSRFSGSGSGTDFTLTISSLQPEDFATYYCQQIMEPPVTFGQGTKVEIKR
notes: as for B6
B14: the “IC50, blocking PD-1/PD-L1 signaling” value in assay [3] came out at 3.56 nM. Besides, in assay [4], the Kd stood at 1.88 nM, the off-rate constant (koff) turned out to be 0.000542 s⁻¹ and the on-rate (kon) was 288000 M⁻¹ s⁻¹.

B15: PHS102.YT10H (antibody, human IgG1, kappa, N297A, V domains shown)
VH: EVQLVESGGGLVQPGGSLRLSCAASGFTISDAYIHWVRQAPGKGLEWVARIEPLSGRTDYADSVKGRFTISADTSKNTAYLQMNSLRAEDTAVYYCARAFSWFMDYWGQGTLVTVSS
VL: DIQMTQSPSSLSASVGDRVTITCRAGQDVYKAVAWYQQKPGKAPKLLIYWSTNLYSGVPSRFSGSGSGTDFTLMISSLQPEDFATYYCQQHDKTPTTFGQGTKVEIKR
notes: as for B6
B15: in assay [4], the equilibrium dissociation constant (Kd) came to 1.92 nM, the koff came out at 0.00067 s⁻¹ and the kon is 350000 M⁻¹ s⁻¹.

B16: PHS102.YT7H (antibody, human IgG1, kappa, N297A)
heavy: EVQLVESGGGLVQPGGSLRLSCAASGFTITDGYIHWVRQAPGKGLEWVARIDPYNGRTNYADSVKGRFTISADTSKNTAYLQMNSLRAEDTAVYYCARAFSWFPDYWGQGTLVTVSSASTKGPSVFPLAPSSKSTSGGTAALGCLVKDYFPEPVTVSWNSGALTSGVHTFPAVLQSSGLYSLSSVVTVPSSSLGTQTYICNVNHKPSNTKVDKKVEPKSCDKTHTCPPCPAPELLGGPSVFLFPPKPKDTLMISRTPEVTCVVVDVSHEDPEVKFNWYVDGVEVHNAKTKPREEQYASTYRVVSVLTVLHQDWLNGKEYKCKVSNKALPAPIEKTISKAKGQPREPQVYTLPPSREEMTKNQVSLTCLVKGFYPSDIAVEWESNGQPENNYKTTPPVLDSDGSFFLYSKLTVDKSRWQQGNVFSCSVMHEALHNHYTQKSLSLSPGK
light: DIQMTQSPSSLSASVGDRVTITCRAGQDVYKAVAWYQQKPGKAPKLLIYWSTNLYSGVPSRFSGSGSGTDFTLTISSLQPEDFATYYCQQHGNAPITFGQGTKVEIKRTVAAPSVFIFPPSDEQLKSGTASVVCLLNNFYPREAKVQWKVDNALQSGNSQESVTEQDSKDSTYSLSSTLTLSKADYEKHKVYACEVTHQGLSSPVTKSFNRGEC
notes: as for B6
On to B16, for which, in assay [3], the “IC50, blocking PD-1/PD-L1 signaling” value was 3.48 nM. Moreover, in assay [4], the dissociation constant (Kd) was 6.16 nM, the dissociation rate constant (koff) is 0.00125 s⁻¹ and the on-rate constant (kon) was 203000 M⁻¹ s⁻¹.
